In the test the target is T1, 重组GFAP蛋白 (人GFAP第292位至第432位氨基酸片段 + 组氨酸标签, 大肠杆菌表达) (human, UniProt P14136 292-432).
T1 construct: also called 重组GFAP蛋白片段; 免疫原; not shown: Histidine tag from vector pET28a
Put plainly: Indirect ELISA on coated recombinant GFAP protein. The affinity constant was calculated from the antibody concentration at half of the plateau OD450.

T1 sequence (P14136 292-432): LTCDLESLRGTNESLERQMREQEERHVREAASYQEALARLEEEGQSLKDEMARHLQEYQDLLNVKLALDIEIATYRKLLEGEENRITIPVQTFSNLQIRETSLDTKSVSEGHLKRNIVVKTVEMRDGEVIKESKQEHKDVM

B1: 抗GFAP蛋白单克隆抗体(10G1G11H7) (antibody, V domains shown)
VH: EVQLQQSGAELVKPGASVKLSCTASGFNIKDTYMHWVKQRPEQGLEWIGRIDPANGKTKYDPKFQGKATITADTSSNTAYLQLSSLTSEDTAVYYCARRGIMTTVPFAYWGQGTLVTVSA
VL: DIVMTQAAPSVPVTPGESVSISCRSSKSLLHSNGNTYLYWFLQRPGQSPQLLIYRMSNLTSGVPDRFSGSGSGTAFTLRISRVEAEDVGVYYCMQHLEYPFTFGGGTKLEIK
For B1, the Ka is 6.53e+09 M⁻¹.
